Here are results for one molecule from patent US20040001801A1 (priority 2002, published 2004).

Square brackets hold non-standard residues; d marks the D form. Peptide text beside a SMILES is read from it. * marks the point of attachment. Doxorubicin(3'-N) = COc1cccc2c1C(=O)c1c(O)c3c(c(O)c1C2=O)C[C@@](O)(C(=O)CO)C[C@@H]3O[C@H]1C[C@H](N*)[C@H](O)[C@H](C)O1; Nle = CCCC[C@H](N)C(=O)O

For the data set the following is noted: mouse, in vivo.

For `CCCC[C@H](NC(=O)[C@H](CO)NC(=O)[C@H](CCCNC(=N)N)NC(=O)CNC(=O)[C@H](CO)NC(=O)CNC(C)=O)C(=O)N[C@H]1C[C@H](O[C@H]2C[C@](O)(C(=O)CO)Cc3c(O)c4c(c(O)c32)C(=O)c2c(OC)cccc2C4=O)O[C@@H](C)[C@H]1O` [Ac-Gly-Ser-Gly-Arg-Ser-nLeu-Dox] (Ac-GSGRS[Nle]-{Doxorubicin(3'-N)}), the “levels of dox and nor-leu dox in the plasma compared with the tumor” value is reported as “lower levels”; the “parent conjugate in the tumor” value is “does not get into the tumor”; the “toxins (norleu dox and dox) concentrations in the tumor” value was “μM concentrations”.
